Assay results taken from publication PMC9738063, “Ethylene Response Factor MaERF012 Modulates Fruit Ripening by Regulating Chlorophyll Degradation and Softening in Banana”.

B1: MaGWD1 probe (dsDNA)
DNA 1: CTAATCACATGATGGTGTGTGGCCGCCATCATTCTCTCCCAAGCAACC
DNA 2: GGTTGCTTGGGAGAGAATGATGGCGGCCACACACCATCATGTGATTAG
B2: MaSGR1 probe (dsDNA)
DNA 1: ATCATATTTCTGAATTAAGGTACTGGCGGCACATCGATATGGTATC
DNA 2: GATACCATATCGATGTGCCGCCAGTACCTTAATTCAGAAATATGAT
B3: MaPL8 probe (dsDNA)
DNA 1: ATATCTGTGTGCTCTTGCGAGGCGGCTGGACTTTCCTGCACGCAAT
DNA 2: ATTGCGTGCAGGAAAGTCCAGCCGCCTCGCAAGAGCACACAGATAT
B4: MaEXP-A8 probe (dsDNA)
DNA 1: GTTGGTTCATAAGGTGCTCCGGCGGCATGTGCTGCAGACACGAAGT
DNA 2: ACTTCGTGTCTGCAGCACATGCCGCCGGAGCACCTTATGAACCAAC
B5: MaAMY3 probe (dsDNA)
DNA 1: CGGACTCACGCCACACCACAGCCGCCCCTGACGCAATTAGCGTCGA
DNA 2: TCGACGCTAATTGCGTCAGGGGCGGCTGTGGTGTGGCGTGAGTCCG
B6: MaXYL23-like probe (dsDNA)
DNA 1: GGCAATCAGTCGGAGGAGGAGCCGCCCGATTTGGTGCACTATCATC
DNA 2: GATGATAGTGCACCAAATCGGGCGGCTCCTCCTCCGACTGATTGCC

molecular target: GST-MaERF012 (Musa acuminata 'Fenjiao' banana, UniProt A0A804KA32 1-188); test: EMSA; LightShift Chemiluminescent EMSA Kit; buffer, salt, pH and temperature not stated; conditions: protein: recombinant; tags: N-terminal GST (pGEX-4T-1); label: biotin 3' end; blunt
Sequence (A0A804KA32 entry or part of it): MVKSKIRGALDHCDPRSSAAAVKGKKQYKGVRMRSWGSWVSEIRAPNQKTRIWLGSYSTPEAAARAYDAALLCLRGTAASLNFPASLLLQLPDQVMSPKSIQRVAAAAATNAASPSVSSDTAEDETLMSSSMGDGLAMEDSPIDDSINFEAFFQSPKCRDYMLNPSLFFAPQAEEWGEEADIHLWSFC

Binding result, binds:
B1
B2
B3
B4
B5
B6
